Measurements published in paper PMC4109916.
One block for each molecule: values may come before it.

What was measured:
[1] = biological target: Recombinant Protein A (SpA) (staphylococcal (species not stated)) (UniProt P38507); test: ELISA; competition: wells coated with mKate-IgGBP or SpA; 1:4000 dIgG-HRP co-incubated with increasing concentrations of unlabeled IgG, 1 hr at room temperature, 3% BSA in PBS-T; IC50 from a one-site LogIC50 fit
[2] = biological target: Human IgG1 (Avastin, bevacizumab) (human)
[3] = biological target: Human IgG1 (Avastin, bevacizumab) (human); remark: listed apart in the source
[4] = biological target: Human IgG1 (Avastin, bevacizumab) (human); test: SPR; pH 6
[5] = biological target: Human IgG1 (Avastin, bevacizumab) (human); test: SPR; pH 7.4
[6] = biological target: hIgG1-TAMRA (labeled human IgG1) (human); test: flow cytometry on cells; same competition experiment as a5 (1 µM hIgG1-TAMRA, MDCK hFcRn-EYFP/hβ2m cells, 1 hr at 37°C, pH 6); pair of the soluble competitor mKate-IgGBP with the labeled hIgG1 that it binds
[7] = biological target: mKate-IgGBP (monomeric Katushka modified at its C-terminus with the IgG-Fc binding peptide); test: ELISA; competition: wells coated with mKate-IgGBP or SpA; 1:4000 dIgG-HRP co-incubated with increasing concentrations of unlabeled IgG, 1 hr at room temperature, 3% BSA in PBS-T; IC50 from a one-site LogIC50 fit
[8] = biological target: human neonatal Fc receptor hFcRn-EYFP/hβ2m on MDCK cells (human) (UniProt P55899); test: flow cytometry on cells; competition: MDCK hFcRn-EYFP/hβ2m cells with 1 µM hIgG1-TAMRA and increasing unlabeled competitor, 1 hr at 37°C, pH 6 (HBSS, 1% ovalbumin, 50 mM MES); read-out is % hIgG1 accumulation (binding and FcRn-dependent endocytosis); pairs with the receptor on cells

Molecule: Human IgG1 (Avastin, bevacizumab) (antibody)
IC50 [1]: 22 nM

plasma half-life of mKate-IgGBP (10 mg/kg i.v.) in hFcRn Tg mice pre-dosed with 500 mg/kg hIgG1 [2]: 8 h | fold extension of the plasma half-life of mKate-IgGBP co-dosed 1:1 mol with labeled hIgG1 in hFcRn Tg mice, against mKate-IgGBP dosed without hIgG1 [3]: 16 fold | Kd [4]: 19 nM | koff [4]: 0.0053 s⁻¹ | kon [4]: 270000 M⁻¹ s⁻¹ | Kd [5]: 40 nM | koff [5]: 0.0042 s⁻¹ | kon [5]: 110000 M⁻¹ s⁻¹ | IC50 [6]: 700 nM
Molecule: mKate-IgGBP (monomeric Katushka modified at its C-terminus with the IgG-Fc binding peptide) (designed binder)

Molecule: mouse IgG2a (CI.18 isotype control) (antibody)
IC50 [1]: 61 nM

Molecule: mouse IgG2b (MPC-11 isotype control) (antibody)
IC50 [1]: 54 nM

IC50 [7]: 2.4 nM | IC50 [8]: 2800 nM
B1: Human IgG1 (Avastin, bevacizumab) (antibody, V domains shown)
VH: EVQLVESGGGLVQPGGSLRLSCAASGYTFTNYGMNWVRQAPGKGLEWVGWINTYTGEPTYAADFKRRFTFSLDTSKSTAYLQMNSLRAEDTAVYYCAKYPHYYGSSHWYFDVWGQGTLVTVSS
VL: DIQMTQSPSSLSASVGDRVTITCSASQDISNYLNWYQQKPGKAPKVLIYFTSSLHSGVPSRFSGSGSGTDFTLTISSLQPEDFATYYCQQYSTVPWTFGQGTKVEIK
